For this assay, the target named is T1, Human NKp46 recombinant proteins (human, UniProt O76036 22-258).
T1 construct: also called recombinant human NKp46 proteins
Description: SPR, bispecific captured on Protein-A chip. The method, then:
SPR measurements were performed on a Biacore T100 apparatus (Biacore GE Healthcare) at 25° C. In all Biacore experiments HBS-EP+(Biacore GE Healthcare) and NaOH 10 mM served as running buffer and regeneration buffer respectively. Sensorgrams were analyzed with Biacore T100 Evaluation software. Protein-A was purchase from (GE Healthcare). Human NKp46 recombinant proteins were cloned, produced and purified at Innate Pharma.
Protein-A proteins were immobilized covalently to carboxyl groups in the dextran layer on a Sensor Chip CM5. The chip surface was activated with EDC/NHS (N-ethyl-N′-(3-dimethylaminopropyl) carbodiimidehydrochloride and N-hydroxysuccinimide (Biacore GE Healthcare)). Protein-A was diluted to 10 μg/ml in coupling buffer (10 mM acetate, pH 5.6) and injected until the appropriate immobilization level was reached (i.e. 2000 RU). Deactivation of the remaining activated groups was performed using 100 mM ethanolamine pH 8 (Biacore GE Healthcare).

B1: CD19-F2-NKp46-3 (bispecific antibody)
chain 1: DIQLTQSPASLAVSLGQRATISCKASQSVDYDGDSYLNWYQQIPGQPPKLLIYDASNLVSGIPPRFSGSGSGTDFTLNIHPVEKVDAATYHCQQSTEDPWTFGGGTKLEIKGGGGSGGGGSGGGGSQVQLQQSGAELVRPGSSVKISCKASGYAFSSYWMNWVKQRPGQGLEWIGQIWPGDGDTNYNGKFKGKATLTADESSSTAYMQLSSLASEDSAVYFCARRETTTVGRYYYAMDYWGQGTTVTVSSGGGSSAPELLGGPSVFLFPPKPKDTLMISRTPEVTCVVVDVSHEDPEVKFNWYVDGVEVHNAKTKPREEQYNSTYRVVSVLTVLHQDWLNGKEYKCKVSNKALPAPIEKTISKAKGQPREPQVYTKPPSREEMTKNQVSLSCLVKGFYPSDIAVEWESNGQPENNYKTTVPVLDSDGSFRLASYLTVDKSRWQQGNVFSCSVMHEALHNHYTQKSLSLSPGSTGSEVQLQQSGPELVKPGASVKISCKTSGYTFTEYTMHWVKQSHGKSLEWIGGISPNIGGTSYNQKFKGKATLTVDKSSSTAYMELRSLTSEDSAVYYCARRGGSFDYWGQGTTLTVSSASTKGPSVFPLAPSSKSTSGGTAALGCLVKDYFPEPVTVSWNSGALTSGVHTFPAVLQSSGLYSLSSVVTVPSSSLGTQTYICNVNHKPSNTKVDKRVEPKSCDKTH
chain 2: DIVMTQSPATLSVTPGDRVSLSCRASQSISDYLHWYQQKSHESPRLLIKYASQSISGIPSRFSGSGSGSDFTLSINSVEPEDVGVYYCQNGHSFPLTFGAGTKLELKRTVAAPSVFIFPPSDEQLKSGTASVVCLLNNFYPREAKVQWKVDNALQSGNSQESVTEQDSKDSTYSLSSTLTLSKADYEKHKVYACEVTHQGLSSPVTKSFNRGEC
notes: Heterodimer with monomeric Fc; also called bi-specific antibody NKp46-3 (F2)
With B1, the binding result was “binds”.

These data come from US20240141042A1 (INNATE PHARMA, published 2024).
